Patent publication US20210122826A1 (MIT, published 2021)
Where two headings read alike, the source gives them in different places.

T1: Human CD209 (human, UniProt Q9NNX6 1-404)
T1 construct: also called hCD209
T1 sequence: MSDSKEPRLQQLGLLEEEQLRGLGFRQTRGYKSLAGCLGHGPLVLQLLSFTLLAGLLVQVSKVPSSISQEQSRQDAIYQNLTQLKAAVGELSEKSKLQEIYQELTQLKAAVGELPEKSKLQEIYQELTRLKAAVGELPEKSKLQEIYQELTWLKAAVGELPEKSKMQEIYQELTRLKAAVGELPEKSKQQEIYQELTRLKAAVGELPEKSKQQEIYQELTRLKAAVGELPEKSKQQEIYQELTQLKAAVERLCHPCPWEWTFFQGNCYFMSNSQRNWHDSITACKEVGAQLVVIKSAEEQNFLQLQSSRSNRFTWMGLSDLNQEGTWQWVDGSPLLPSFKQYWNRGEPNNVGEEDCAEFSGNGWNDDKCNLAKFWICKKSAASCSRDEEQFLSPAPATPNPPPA

T2: Human Clec7A (human, UniProt Q9BXN2 1-247)
T2 construct: also called hClec7A
T2 sequence: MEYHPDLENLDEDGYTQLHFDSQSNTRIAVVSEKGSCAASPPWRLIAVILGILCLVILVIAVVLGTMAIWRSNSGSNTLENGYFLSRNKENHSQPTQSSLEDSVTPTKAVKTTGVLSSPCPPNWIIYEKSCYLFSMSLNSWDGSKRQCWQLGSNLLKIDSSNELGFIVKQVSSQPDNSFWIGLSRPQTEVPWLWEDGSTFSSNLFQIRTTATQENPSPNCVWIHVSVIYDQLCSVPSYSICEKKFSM

T3: Human CD94 (human, UniProt Q13241 1-179)
T3 construct: also called hCD94
T3 sequence: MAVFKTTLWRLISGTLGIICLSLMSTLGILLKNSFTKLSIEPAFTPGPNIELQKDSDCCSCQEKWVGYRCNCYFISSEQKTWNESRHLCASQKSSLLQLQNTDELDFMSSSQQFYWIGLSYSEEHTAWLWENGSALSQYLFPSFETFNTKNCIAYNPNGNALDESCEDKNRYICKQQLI

T4: Human KLRG1 (human, UniProt Q96E93 1-195)
T4 construct: also called hKLRG1
T4 sequence: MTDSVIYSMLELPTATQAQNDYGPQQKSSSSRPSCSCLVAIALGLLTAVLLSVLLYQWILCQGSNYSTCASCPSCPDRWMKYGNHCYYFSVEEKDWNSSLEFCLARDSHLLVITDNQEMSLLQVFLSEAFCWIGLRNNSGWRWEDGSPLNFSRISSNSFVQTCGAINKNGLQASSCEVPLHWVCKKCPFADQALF

T5: cynomolgus CD161 (cynomolgus)
T5 construct: UniProt A0A2K5WYI1; also called cynoCD161
T5 chain: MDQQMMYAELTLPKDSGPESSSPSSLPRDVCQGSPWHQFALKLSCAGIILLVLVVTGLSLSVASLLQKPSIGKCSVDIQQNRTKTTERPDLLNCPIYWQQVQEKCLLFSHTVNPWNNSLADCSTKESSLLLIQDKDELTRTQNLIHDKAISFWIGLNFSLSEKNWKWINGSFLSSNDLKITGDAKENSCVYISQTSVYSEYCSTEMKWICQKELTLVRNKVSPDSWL

T6: Human KLRF1 (human, UniProt Q9NZS2 1-231)
T6 construct: also called hKLRF1
T6 sequence: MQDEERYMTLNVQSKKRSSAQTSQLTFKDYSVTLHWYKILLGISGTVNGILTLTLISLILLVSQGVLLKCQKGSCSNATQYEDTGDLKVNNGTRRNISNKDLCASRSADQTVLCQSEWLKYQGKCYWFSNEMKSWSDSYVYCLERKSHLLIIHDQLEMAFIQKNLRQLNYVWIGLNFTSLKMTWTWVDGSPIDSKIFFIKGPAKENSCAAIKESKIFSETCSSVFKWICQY


Columns and labels:
Human CD209 [1] = molecular target: T1, Human CD209; assay: flow, Jurkat, 100 nM Ab
Human OLR1 = molecular target: T7, Human OLR1 (human, UniProt P78380 1-273); assay: flow, Jurkat, 100 nM Ab
T7 construct: also called hOLR1

Human Clec7A = molecular target: T2, Human Clec7A; assay: flow, Jurkat, 100 nM Ab
Human CD94 [2] = molecular target: T3, Human CD94; assay: flow, Jurkat, 100 nM Ab
Human KLRG1 = molecular target: T4, Human KLRG1; assay: flow, Jurkat, 100 nM Ab
Human Clec9A = molecular target: T8, Human Clec9A (human, UniProt Q6UXN8 1-241); assay: flow, Jurkat, 100 nM Ab
T8 construct: also called hClec9A

cynomolgus CD161 [3] = molecular target: T5, cynomolgus CD161; assay: flow, Jurkat, 100 nM Ab
cynomolgus CD161 [4] = molecular target: T5, cynomolgus CD161; assay: flow, Jurkat
Human CD209 [5] = molecular target: T1, Human CD209; assay: flow, Jurkat, 100 nM Ab; remark: listed apart in the source
Human KLRF1 = molecular target: T6, Human KLRF1; assay: flow, Jurkat, 100 nM Ab
Human CD94 [6] = molecular target: T3, Human CD94; assay: flow, Jurkat, 100 nM Ab; remark: listed apart in the source
human CD161 [7] = molecular target: T9, human CD161 (human, UniProt Q12918 1-225); assay: flow, Jurkat, Ab titration
T9 construct: UniProt Q12918; also called hCD161; KLRB1

cynomolgus CD161 [8] = molecular target: T5, cynomolgus CD161; assay: flow, Jurkat, Ab titration
human CD161 [9] = molecular target: T9, human CD161; assay: flow, Jurkat, Ab titration; remark: listed apart in the source
Protocol: (§1) To measure binding, Jurkat cells expressing hCD161 or cynoCD161 were incubated with 0.01 nM to either 0.1 μM or 0.3 μM anti-CD161 antibodies as listed in Table 12. Jurkat cells expressing cynoCD161 were prepared using the methods described in Example 7. Volumes were sufficiently large such that ligand was depleted less than 10%. Following a three-hour incubation on ice, cells were washed and stained with fluorescent anti-human secondary antibody. The cells were washed, and labeling of antibody binding was assessed by flow cytometry to determine the MFI as a function of anti-CD161 antibody concentration. Raw MFI (top panel) and MFI normalized to the maximum value in each dataset (bottom panel) are shown for binding to hCD161 (FIG. 7C) and to cynoCD161 (FIG. 7D).

cynomolgus CD161 [10] = molecular target: T5, cynomolgus CD161; assay: flow, Jurkat, Ab titration
Protocol: as §1

human CD161 [11] = molecular target: T9, human CD161; assay: flow cytometry titration of soluble IgG on Jurkat hCD161+ cells, fluorescent secondary antibody, MFI against Ab concentration (log [M])
Protocol: as §1

cynomolgus CD161 [12] = molecular target: T5, cynomolgus CD161; assay: flow cytometry titration of soluble IgG on Jurkat cynoCD161+ cells, fluorescent secondary antibody, MFI against concentration (log [M])
Protocol: as §1

T8 sequence (Q6UXN8 whole entry): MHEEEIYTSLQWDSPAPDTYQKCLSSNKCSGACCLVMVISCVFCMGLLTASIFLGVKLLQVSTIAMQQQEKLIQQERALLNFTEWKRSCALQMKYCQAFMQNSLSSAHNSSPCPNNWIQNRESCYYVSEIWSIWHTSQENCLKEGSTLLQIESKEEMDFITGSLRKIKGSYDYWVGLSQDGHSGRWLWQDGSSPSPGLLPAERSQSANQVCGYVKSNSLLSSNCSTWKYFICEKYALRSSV

Binder	MFI normalized to WT (Human CD209 [1])	MFI normalized to WT (Human OLR1)	MFI normalized to WT (Human Clec7A)	MFI normalized to WT (Human CD94 [2])	MFI normalized to WT (Human KLRG1)	MFI normalized to WT (Human Clec9A)	MFI normalized to WT (cynomolgus CD161 [3])	binding result (cynomolgus CD161 [4])	MFI normalized to WT (Human CD209 [5])	MFI normalized to WT (Human KLRF1)	MFI normalized to WT (Human CD94 [6])	fold binding vs HP-3G10 (human CD161 [7])	fold binding vs HP-3G10 (cynomolgus CD161 [8])	Kd (human CD161 [9])	Kd (cynomolgus CD161 [10])	EC50 (read off the curve) (human CD161 [11])	EC50 (read off the curve) (cynomolgus CD161 [12])
anti-CD161 KW17 (antibody, V domains shown, Human, lambda light chain; scFv-Fc or full IgG not clear; also called KW17-Fc) VH: not shown VL: QSVLTQPPSVSGAPGQRVTISCTGSSSNIGAGYDVHWYQQLPGTAPKLLIYGNSNRPSGVPDRFSGSKSGTSASLAITGLQAEDEADYYCQSYDSSHTVFGGGTQLTVL	0.92	0.98	1.13	0.95	1.05	1.07	0.98	no binding (tested: 100 nM)									
KW17.3.4 (antibody, V domains shown) VH: not shown VL: QSVLTQPPSVSGAPGQRVTISCTGSSSNIGAGYDVHWYQQLPGTAPKLLIYGNSNRPSGVPDRFSGSQSGTSASLAITGLQAEDEADYYCQSYNSGHTVFGGGTQLTVL								no binding (tested: 100 nM)	0.94	0.91	0.97						
KW1.2.1 (antibody, V domains shown) VH: EVQLVESGGGLVQPGGSLRLSCAASGSTFSSYAMSWVRQAPGKGLEWVSTISGSGGSTYYADSVKGRFTISRDNSRNTLYLQMNSLRAEDTAVYYCARGGLIPSGFDYWGQGTLVTVSS VL: DIQMTQSPSSPSASVGDRVTITCRASQSISSYLNWYQQKPGKAPKLLIYAASSLLSGVPSRFSGSGSGTDFTLTISSLQPEDFATYYCQQTYSTPLTFGQGTKVEIK									0.96	1.14	1.13	~10 fold	~10 fold	0.233 nM	0.247 nM	~0.2 nM	
KM12.2.3 (antibody, human IgG1, V domains shown) VH: EVQLVESGGGLVQPGGSLRLSCAASGFTFSSYAMSWIRQAPGKGLEWVSAISGSGGSIYYADSVKGRFTISRDNSKNTLYLQMNSLRAEDTAVYYCARGYSDSYFYGPYYTFDYWGQGTLVTVSS VL: DIQMTQSPSSLSASVGDRVTITCRASQGISSYLNWYQQKPGKAPKLLIYAASSLQSGVSSRFSGSGSGTDFTLTISSLQPEDFATYYCQQSYNTPLTFGQGTKVEIK									1.48	1.18	1.36						

Other lines, results leading:

MFI normalized to WT (Human CD209 [1])	MFI normalized to WT (Human OLR1)	MFI normalized to WT (Human Clec7A)	MFI normalized to WT (Human CD94 [2])	MFI normalized to WT (Human KLRG1)	MFI normalized to WT (Human Clec9A)	MFI normalized to WT (cynomolgus CD161 [3])	binding result (cynomolgus CD161 [4])	MFI normalized to WT (Human CD209 [5])	MFI normalized to WT (Human KLRF1)	MFI normalized to WT (Human CD94 [6])	fold binding vs HP-3G10 (human CD161 [7])	fold binding vs HP-3G10 (cynomolgus CD161 [8])	Kd (human CD161 [9])	Kd (cynomolgus CD161 [10])	EC50 (read off the curve) (human CD161 [11])	EC50 (read off the curve) (cynomolgus CD161 [12])	Binder
								1	1.18	1.29	~10 fold	~10 fold	0.207 nM	0.24 nM	~0.2 nM		KW7.2.2 (antibody, V domains shown) VH: not shown VL: DIQMTQSPSSLSASVGDRVTITCRASQSISSYLNWYQQKPGKAPRFLIYAASSLQSGVPSRFSGSGSGTDFTLTISSLQPEDFATYYCQQTYSTPLTFGQGTKVEIK
							no binding (tested: 100 nM)	0.81	0.8	0.84							KW9.3.3 (antibody, V domains shown) VH: EVQLVESGGGLVQPGGSLRLSCAASGFTFSSYAMSWVRQAPGKGLEWVSAISGSGGRTYYADSVKGRFTISRDNSKNTLYLQMNSLRAEDTAMYYCARGPGYMYLYGDSFFEYWGQGTLVTVSS VL: DIQMAQSPSSLSASVGDRVTITCRASQGISSYLNWYQQKPGKAPKLLIYAASSLQSGVPSRFSGSGYGTDFTLTISSLQPEDFATYYCQQSYSTPLTFGQGTKVEIK
								0.97	1.14	1.2	~10 fold	~10 fold	0.0925 nM	0.225 nM	~0.09 nM	~0.2 nM	KM12.4.7 (antibody, V domains shown) VH: EVQLVESGGGLVQPGGSLRLPCAASGFTFSSYAMSWIRQAPGKGLEWVSAISGSGGSIYYADSVKGRFTISRDNSKNTLYLQMDSLRAEDTAVYYCARGYSDSYFYGPYYTFDYWGQGTLVTVSS VL: not shown
								0.91	1.02	1.07	~10 fold	~10 fold	0.249 nM	0.274 nM	~0.4 nM	~0.3 nM	KW1.3.12 (antibody, human IgG1, V domains shown) VH: EVQLVESGGGLVQPGGSLRLSCAASGFTFSSYAMSWVRQAPGKGLEWVSTISGSGGSTYYADSVKGRFTISRDNSRNTLYLQMNSLRAEDTAVYYCARGGLIPSGFDYWGQGTLVTVSS VL: DIQMTQSPSSLSASVGDRVTITCRASQSISSYLNWYQQKPGKAPKLLIYAASSLLSGVPSRFSGSGSGTDFTLTISSLQPEDFATYYCQQTYSAPLTFGQGTKVEIK
								0.85	1.19	1.01							KW7.3.7 (antibody, V domains shown) VH: EVQLVESGGGLVQPGGSLRLSCAASGFTFSSYAMSWVRQAPGKGLEWVSATSGSGGSTYYADSAKGRFTISRDNSKNTLYLQMNSLRAEDTAVYYCARGGYLPDAFDYWGRGTLVTVSS VL: DIQMTQSPSSLSASVGDRVTITCWASQSISSYLNWYQQEPGKAPKLLIYAASSLQSGVPSRFSGSGSGTDFTLTISSLQPEDFATYYCQQTYSTPLTFGQGTKVEIK
